Assay results: patent US8361965B2, “Recombinant chimeric protein of neutrophil inhibitory factor and hirugen, and pharmaceutical composition thereof” (Lunan Pharmaceutical Group Corporation, priority 2008, dated 2013)
“Also recorded” adds a separate entry of the source. Where two headings read alike, the source gives them in different places.

B1: NIF: Neutrophil inhibitory factor, 257 amino acids; prepared by Chongqing Fujin Biology and Medicine Company (protein)
chain: NEHNLRCPQNGTEMPGFNDSIRLQFLAMHNGYRSKLALGHISITEESESDDDDDFGFLPDFAPRASKMRYLEYDCEAEKSAYMSARNCSDSSSPPEGYDENKYIFENSNNISEAALKAMISWAKEAFNLNKTKEGEGVLYRSNHDISNFANLAWDAREKFGCAVVNCPLGEIDDETNHDGETYATTIHVVCHYPKINKTEGQPIYKVGTPCDDCSEYTKKADNTTSADPVCIPDDGVCFIGSKADYDSKEFYRFREL
B2: NHH: bifunctional chimeric protein NIF-(Gly)5-hirugen, 274 amino acids, of Chinese patent application 031011551; control protein (protein)
chain: NEHNLRCPQNGTEMPGFNDSIRLQFLAMHNGYRSKLALGHISITEESESDDDDDFGFLPDFAPRASKMRYLEYDCEAEKSAYMSARNCSDSSSPPEGYDENKYIFENSNNISEAALKAMISWAKEAFNLNKTKEGEGVLYRSNHDISNFANLAWDAREKFGCAVVNCPLGEIDDETNHDGETYATTIHVVCHYPKINKTEGQPIYKVGTPCDDCSEYTKKADNTTSADPVCIPDDGVCFIGSKADYDSKEFYRFRELGGGGGNGDFEEIPEEYL

Tests used:
[1] = tested on: cerebral ischemia in rats subjected to middle cerebral artery occlusion; type: in vivo, Wistar rats; conditions: for behavioral score / pathological section of brain (cerebral cortex nerve cells): 2 mg/kg bid caudal vein; for behavioral score: full score 11; for pathological section of brain (cerebral cortex nerve cells): HE, compared with model group
[2] = tested on: experimental cerebral hematoma in rats; experiment: effects on experimental cerebral hematoma in rats; type: in vivo, SD rats; set-up: key to behavioral score: neurologic defect score, full score 11; higher = more severe disorder; conditions: for behavioral score / Brain water content (%): 2 mg/kg bid caudal vein; for behavioral score: full score 11; for Brain water content (%): dry and wet method; for degree of pathological change, remaining cases: 2-3 cases per group
Protocol: SD rats were randomly divided into 4 groups (8 animals per group), including model group, NHH group, NIF group and TNHH group. The rats in each group were anesthetized by chloral hydrate, and then 0.1 ml blood was collected by amputation of tail. The rats were fixed in a stereotaxic apparatus. Median incision of scalp was performed and the periosteum was cut open to expose bregma. Subsequently, a small hole with a diameter of 1 mm was perforated for needle insertion of microsyringe fixed on the stereotaxic apparatus with insertion depth of 5.8 mm (i.e to the position of caudate nucleus) at the site which was 1 mm rearward to the bregma and 3 mm left to the midline, and then 0.1 ml autoblood was injected slowly. Neurological functional defect score was immediately evaluated based on the evaluation criterion after the animal got conscious. The animal with behavior score less than 11 was selected in this study. Behavior score evaluation was continuously carried out after the establishment of model till the end of the experiment.
The neurologic function defect score was evaluated at 5 time points of 4 h, 12 h, 24 h, 48 h and 72 h after the model establishment. Changes of brain water content and histopathological observation were performed at 72 h after the model establishment on sacrificed rats.
Corresponding medicaments (2 mg/kg, bid) were administered through the caudal vein to animals with administration volume of 1 ml/100 g in each group after model animal was successfully established (according to the score less than 11 based on the behavior score evaluation), while the model group received physiological saline in the corresponding volume.
The brain was taken out immediately after the sacrifice of animals, and then […] ectocinerea (cortex was removed) at the edge of haematoma was collected. The brain water content was determined using dry and wet method based on the following formula: Brain water content=(wet weight−dry weight)/wet weight×100%
The brain was immediately taken out by decollation at selected time points, and it was sliced up to be 2 mm thick along the coronal section and then fixed in 10% formaldehyde. The slices were stained by regular HE and mounted. Then the pathological changes occurred in pathological region and the neighboring brain tissues were observed.
Evaluation was performed at the time of 4 h, 12 h, 24 h, 48 h and 72 h after surgery. The method was described as follows:
The flection of forelimbs was observed by lifting the rat by its tail. If the forelimbs symmetrically extended toward the floor, the score was 0. While if wrist flection, or elbow inflection, or internal rotation of shoulder, or both elbow inflection and internal rotation of shoulder occurred to forelimbs of the rat on the opposite side of the surgery part, it was evaluated as scores of 1, 2, 3 and 4, respectively.
The animal was placed on flat floor, and then both shoulders were pushed to move towards the opposite side to examine the resistance. If the resistances on both sides were equal and forceful, it was evaluated as 0. While if the resistance decreased slightly, mildly or severely when pushed to the opposite side of the surgery part, it was evaluated as 1, 2 or 3, respectively.
Both forelimbs of the animal were placed on a metal mesh to observe the muscular tension. The rat with equal and forceful muscular tension of both forelimbs was evaluated as 0. In the same way, the rat was evaluated as 1, 2 or 3, respectively with the reduction of muscular tension on the opposite side of the surgery part mentioned above.
The animal tended to keep turning around to one side was evaluated as 1. Based on the evaluation criterion (with full score of 11), the higher the score was evaluated, the more severe the behavior disorder was.

leukocyte adhesion = experiment: anti-leukocyte adhesion activity, in vitro comparative analysis; type: cell-based; conditions: in vitro
thrombin = thrombin (Homo sapiens, UniProt P00734); experiment: antithrombin activity, in vitro comparative analysis; type: biochemical; set-up: TNHH-G15/n3 and TNHH have the same antithrombin activity
[3] = 2 mg/kg bid, brain pathological section

Row | Molecule | behavioral score ([1]; 4 h) | behavioral score ([1]; 8 h) | behavioral score ([1]; 24 h) | behavioral score ([1]; 48 h) | behavioral score ([1]; 72 h) | pathological section of brain (cerebral cortex nerve cells) [1] | Cerebral infarction volume (%) ([1]; 72 h) | behavioral score ([2]; 4 h) | behavioral score ([2]; 12 h) | behavioral score ([2]; 24 h) | behavioral score ([2]; 48 h) | Brain water content (%) ([2]; 72 h) | behavioral score ([2]; 72 h) | degree of pathological change, remaining cases [2, 3] | degree of pathological change, most cases ([2]; 2 mg/kg bid, brain pathological section, model group mostly ++→+++) | anti-leukocyte adhesion activity (leukocyte adhesion) [Unit/mg] | antithrombin activity (thrombin)
1 | B1 | 6.2 ± 0.8 | 6.5 ± 1.2 | 5.5 ± 0.5 | 5.5 ± 0.4 | 5.5 ± 0.5 | less pathological changes; also recorded: less regular arrangements, a portion of deeply stained nucleus, and some cytoplasmic shrinkage or disappearance | 24.9 ± 9.6 | 1.86 ± 0.90 | 2.14 ± 0.90 | 2.43 ± 0.53 | 3.14 ± 0.90 | 79.36 ± 0.47 | 4.14 ± 1.68 | +→++ | ±→+ | 750 | None
2 | B2 | 8.2 ± 1.7 | 8.2 ± 1.7 | 8.0 ± 1.4 | 6.5 ± 1.4 | 5.7 ± 1.2 | less pathological changes; also recorded: less regular arrangements, a portion of deeply stained nucleus, and some cytoplasmic shrinkage or disappearance | 25.2 ± 5.2 | 2.14 ± 0.69 | 1.86 ± 0.90 | 2.43 ± 1.00 | 2.57 ± 0.13 | 78.66 ± 0.55 | 3.57 ± 1.72 | +→++ |  | 650 | 
